Laboratory results taken from the supplement of paper PMC12667976.

B1: library; numbered along this chain (parent)
chain: MATDAALRRLLRLHRTEIAVAVDSAFPLLHALADHDVVPEDKFQETLHLKEKEGCPQAFHALLSWLLTQDSTAILDFWRVLFKDYNLERYGRLQPILDSFPKDVDLSQPRKGRKPPAVPKALVPPPRLPTKRKASEEARAAAPAALTPRGTASPGSQLKAKPPKKPESSAEQQRLPLGNGIQTMSASVQRAVAMSSGDVPGARGAVEGILIQQVFESGGSKKCIQVGGEFYTPSKFEDSGSGKNKARSSSGPKPLVRAKGAQGAAPGGGEARLGQQGSVPAPLALPSDPQLHQKNEDECAVCRDGGELICCDGCPRAFHLACLSPPLREIPSGTWRCSSCLQATVQEVQPRAEEPRPQEPPVETPLPPGLRSAGEEVRGPPGEPLAGMDTTLVYKHLPAPPSAAPLPGLDSSALHPLLCVGPEGQQNLAPGARCGVCGDGTDVLRCTHCAAAFHWRCHFPAGTSRPGTGLRCRSCSGDVTPAPVEGVLAPSPARLAPGPAKDDTASHEPALHRDDLESLLSEHTFDGILQWAIQSMARPAAPFPS

Variants of: B1
Test: AIRE transcriptional activation functional score (insulin promoter-GFP; nonsense median 0, synonymous median 1) (normalised score); higher = higher AIRE activity (more reporter activation)
Settings: with insulin promoter-GFP reporter in HEK293
Summary of the method: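 Functional scores come from comparing select with non-select enrichment of each variant and subtracting wild type. Codon-optimized AIRE NNN-codon libraries across three regions were integrated via Bxb1 recombinase into HEK293 landing-pad cells with an insulin core promoter-GFP reporter, and integrants sorted at day 7 were expanded 7 days before top 10% GFP and unselected populations were tile-sequenced. Variants needed 10 counts per million in non-select, and values were rescaled to nonsense median 0 and synonymous median 1 before averaging over biological replicates.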

AIRE transcriptional activation functional score of substitutions, site by site:
C322: E 1.77, W 0.487, M 1.1, R 0.999, Q 1.2, D 1.77, I 0.327, Y 0.843, P 1.25, F 0.737, H 1.5, A 1.16, L 0.951, G 1.24, S 1.41, V 0.9, T 1.21, N 0.919, K 1.21
L320: Y 1.09, A 1.19, D 1.14, V 0.976, E 1.22, W 0.685, N 0.948, P 0.869, T 1.13, F 1.19, G 0.879, S 0.896, C 0.84, I 0.729, H 0.847, R 1.16, Q 0.88, K 0.922, M 1.03
P325: M 1.15, T 0.777, G 1.1, E 1.45, Y 1.18, K 1.55, V 0.965, N 0.521, Q 0.938, F 1.01, D 0.208, I 1.07, S 1.21, L 1.12, R 0.876, W 0.913, H 0.387, A 1.15, C 1.04
H319: Y 0.961, Q 1.44, P 1.4, K 1.15, R 1.03, I 0.263, L 0.424, V 0.662, A 1.16, F 0.514, W 0.996, T 1.38, S 1.31, M 0.921, E 1.39, D 1.24, C 1.43, N 1.26, G 1.28
A317: R 0.922, G 0.974, S 0.689, I 0.854, T 0.717, L 1.01, E 1.37, P 1.23, D 1.25, C 1.28, Q -0.307, K 0.241, M 0.781, N 0.865, V 0.416, W 1.53, F 0.813, H 1.06, Y 0.503
R316: M 1.04, G 1.33, P 1.14, Q 1.05, F 0.43, I 1.26, H 1.36, A 0.77, K 1.03, E 1.28, C 1.22, W 1.28, D 1.42, V 0.904, N 0.525, Y 1.36, S 1.19, L 0.804, T 1.06
E329: V 1.1, H 1.45, L 1.16, S 1.09, R 0.935, P 0.962, A 1.11, W 1.13, K 0.00515, C 1.46, I 1.46, F 1.58, N 1.33, Y 1.42, Q -1.43, G 0.92, D 1.74, T 0.98
P326: L 1.1, D 0.439, Y 1.14, F 1.72, M -0.264, N 0.815, G 0.87, S 0.881, T 0.923, W 1.08, I 1.06, K 0.94, C 1.19, H 0.781, Q 0.303, A 0.645, R 1.17, V 1.41, E 0.653
L327: R 1.05, C 0.927, D 0.96, A 1.07, Q 1.33, I 0.913, F 1.21, H -0.118, E 0.71, K 0.524, G 0.535, N 1.37, P 0.673, Y 1.2, S 1.14, T 0.786, V 0.621, W 1.69, M 1.3
S324: F 1.09, W 1.45, E 0.773, P 0.628, G 1.01, D 1.13, T 0.785, V 0.994, R 0.621, C 1.03, K 0.415, Q 0.407, N 1.08, I 1.06, H 0.589, A 1.37, L 1.11, Y 1.18
R328: V 1.1, A 0.877, M 1.1, H -0.256, G 0.729, K 0.67, S 1.17, Y 1.34, E 1.06, Q 0.659, T 0.764, I 1.17, L 1.08, P 1.22, F 0.907, C 0.932
P331: H 0.817, K 0.702, V 1.21, G 1.07, F 0.62, T 0.972, N 1.23, A 1.19, S 0.73, I 1.59, L 0.9, W 1.26, C 1, E 0.93, D 1.29, Y 1.08, R 1.41, Q 0.548, M 1.35
A321: Y 0.541, V 1.05, P 1.3, S 1.01, G 1.21, L 0.961, K 1.09, E 0.854, T 0.918, N 1.06, D 0.763, M 1.58, R 0.843, C 0.948, Q 1.11, W 1.14, I 1.33, F 1.1, H 0.857
L323: S 0.985, E 1.47, R 1.15, W 1.42, I 0.984, N 0.866, D 1.16, V 1.21, K 1.19, Y 0.513, H 0.721, T 1.35, C 0.656, G 1.16, P 1.33, M 1.8, A 1.11, Q 1.35, F 1.5
F318: Q 1.31, R 1.47, N 1.45, T 1.31, Y 1.07, H 1.42, A 0.96, C 1.32, S 1.19, M 1.54, G 1.39, E 1.34, D 1.02, P 1.21, V 0.874, I 1.12, L 1.05, W 0.907, K 1.39
C314: G 0.862, T 1.14, E 0.893, N 1.03, W 0.709, L 0.847, M 1.12, H 0.752, Y 0.725, F 0.96, S 1.07, P 1.1, K 1, Q 0.418, D 0.933, V 1.13, R 0.842, I 1.08
P315: E 0.802, D 1.08, F 0.835, W 2.51, T 0.854, Y 0.976, R 0.972, K 0.481, I 1, S 1.14, A 0.558, V 1.12, N 1.1, M 1.22, L 0.924, G 0.618, Q 1.05, H 0.985, C 0.985
I330: W 0.987, R 1.07, L 0.906, A 0.828, D 0.391, E 0.403, S 0.814, T 0.637, F 0.831, N 0.89, Y 0.572, G 1.16, P 1.33, V 0.684, K 0.557, Q 0.577, C 0.866
